From the supplement of paper PMC5998384 come the findings set out here.

Data set [1] deals with HeLa Kyoto. In words: melting temperature (median over replicates), in situ; higher = more thermally stable.
Data set [2] concerns HeLa Kyoto. In words: solubility change mitosis vs G1/S (difference of NP-40 vs SDS log2 ratios) (log2 ratio difference); higher = more soluble in mitosis.
Data set [3] has as its system HeLa Kyoto. Description: solubility in G1/S (NP-40 vs SDS abundance) (log2 ratio); higher = more soluble. The conditions noted are these: cell cycle stage: G1/S.
Data set [4] relates to HeLa Kyoto. In words: thermal stability score vs G1/S (z-score of summed log2 fold changes over temperatures); higher = more thermally stable than in G1/S.
Setting [5] is: cell cycle stage: early G1 (4.5 h after nocodazole release).
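For melting temperature (median over replicates), in situ in this document: HeLa Kyoto cells synchronized by double thymidine or nocodazole block, proteins quantified by TMT10plex mass spectrometry, three independent biological replicates.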
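For solubility change mitosis vs G1/S (difference of NP-40 vs SDS log2 ratios) in this document: synchronized HeLa Kyoto cells (double thymidine block for G1/S, nocodazole release for mitosis), protein amounts in NP-40 versus SDS lysates quantified by mass spectrometry, three biological replicates.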
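For solubility in G1/S (NP-40 vs SDS abundance) in this document: HeLa Kyoto cells arrested at G1/S by double thymidine block, proteins quantified by TMT10plex mass spectrometry in mild NP-40 versus SDS extracts, three biological replicates.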
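For thermal stability score vs G1/S (z-score of summed log2 fold changes over temperatures) in this document: synchronized HeLa Kyoto cells, proteins quantified by TMT10plex mass spectrometry, three biological replicates, mitosis taken 0.5 h after nocodazole release, G1/S directly after double thymidine block.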

Take “MTLTERLREKISRAFYNHGLLCASYPIPIILFTGFCILACCYPLLKLPLPGTGPVEFTTPVKDYSPPPVDSDRKQGEPTEQPEWYVGAPVAYVQQIFVKSSVFPWHKNLLAVDVFRSPLSRAFQLVEEIRNHVLRDSSGIRSLEELCLQVTDLLPGLRKLRNLLPEHGCLLLSPGNFWQNDWERFHADPDIIGTIHQHEPKTLQTSATLKDLLFGVPGKYSGVSLYTRKRMVSYTITLVFQHYHAKFLGSLRARLMLLHPSPNCSLRAESLVHVHFKEEIGVAELIPLVTTYIILFAYIYFSTRKIDMVKSKWGLALAAVVTVLSSLLMSVGLCTLFGLTPTLNGGEIFPYLVVVIGLENVLVLTKSVVSTPVDLEVKLRIAQGLSSESWSIMKNMATELGIILIGYFTLVPAIQEFCLFAVVGLVSDFFLQMLFFTTVLSIDIRRMELADLNKRLPPEACLPSAKPVGQPTRYERQLAVRPSTPHTITLQPSSFRNLRLPKRLRVVYFLARTRLAQRLIMAGTVVWIGILVYTDPAGLRNYLAAQVTEQSPLGEGALAPMPVPSGMLPPSHPDPAFSIFPPDAPKLPENQTSPGESPERGGPAEVVHDSPVPEVTWGPEDEELWRKLSFRHWPTLFSYYNITLAKRYISLLPVIPVTLRLNPREALEGRHPQDGRSAWPPPGPIPAGHWEAGPKGPGGVQAHGDVTLYKVAALGLATGIVLVLLLLCLYRVLCPRNYGQLGGGPGRRRRGELPCDDYGYAPPETEIVPLVLRGHLMDIECLASDGMLLVSCCLAGHVCVWDAQTGDCLTRIPRPGRQRRDSGVGSGLEAQESWERLSDGGKAGPEEPGDSPPLRHRPRGPPPPSLFGDQPDLTCLIDTNFSAQPRSSQPTQPEPRHRAVCGRSRDSPGYDFSCLVQRVYQEEGLAAVCTPALRPPSPGPVLSQAPEDEGGSPEKGSPSLAWAPSAEGSIWSLELQGNLIVVGRSSGRLEVWDAIEGVLCCSSEEVSSGITALVFLDKRIVAARLNGSLDFFSLETHTALSPLQFRGTPGRGSSPASPVYSSSDTVACHLTHTVPCAHQKPITALKAAAGRLVTGSQDHTLRVFRLEDSCCLFTLQGHSGAITTVYIDQTMVLASGGQDGAICLWDVLTGSRVSHVFAHRGDVTSLTCTTSCVISSGLDDLISIWDRSTGIKFYSIQQDLGCGASLGVISDNLLVTGGQGCVSFWDLNYGDLLQTVYLGKNSEAQPARQILVLDNAAIVCNFGSELSLVYVPSVLEKLD [SCAP]”: the melting temperature in the data set on HeLa Kyoto [1] (cell cycle stage: G1/S) came to 53.4 °C; with HeLa Kyoto [1] (cell cycle stage: mitosis) it was 52.8 °C. Besides, the “solubility change mitosis (log2)” value in the data set on HeLa Kyoto [2] was -0.108. In the data set on HeLa Kyoto [3], the “solubility in G1/S (log2)” value is -0.105. Also, the thermal stability score in the data set with HeLa Kyoto [4] (setting [5]) is -0.535; in the data set on HeLa Kyoto [4] (cell cycle stage: mitosis) it was 0.3.

Regarding “MTMPVNGAHKDADLWSSHDKMLAQPLKDSDVEVYNIIKKESNRQRVGLELIASENFASRAVLEALGSCLNNKYSEGYPGQRYYGGTEFIDELETLCQKRALQAYKLDPQCWGVNVQPYSGSPANFAVYTALVEPHGRIMGLDLPDGGHLTHGFMTDKKKISATSIFFESMPYKVNPDTGYINYDQLEENARLFHPKLIIAGTSCYSRNLEYARLRKIADENGAYLMADMAHISGLVAAGVVPSPFEHCHVVTTTTHKTLRGCRAGMIFYRKGVKSVDPKTGKEILYNLESLINSAVFPGLQGGPHNHAIAGVAVALKQAMTLEFKVYQHQVVANCRALSEALTELGYKIVTGGSDNHLILVDLRSKGTDGGRAEKVLEACSIACNKNTCPGDRSALRPSGLRLGTPALTSRGLLEKDFQKVAHFIHRGIELTLQIQSDTGVRATLKEFKERLAGDKYQAAVQALREEVESFASLFPLPGLPDF [SHMT1]”, the melting temperature with HeLa Kyoto [1] (cell cycle stage: G1/S) and with HeLa Kyoto [1] (cell cycle stage: mitosis) was 58.2 °C each time. Besides, the “solubility change mitosis (log2)” value in the data set on HeLa Kyoto [2] was -0.0876. Moreover, the “solubility in G1/S (log2)” value in the data set with HeLa Kyoto [3] amounted to 0.366. Moreover, the thermal stability score with HeLa Kyoto [4] (setting [5]) was -2.14; in the data set with HeLa Kyoto [4] (cell cycle stage: mitosis), -2.12.

As to “MTSEVIEDEKQFYSKAKTYWKQIPPTVDGMLGGYGHISSIDINSSRKFLQRFLREGPNKTGTSCALDCGAGIGRITKRLLLPLFREVDMVDITEDFLVQAKTYLGEEGKRVRNYFCCGLQDFTPEPDSYDVIWIQWVIGHLTDQHLAEFLRRCKGSLRPNGIIVIKDNMAQEGVILDDVDSSVCRDLDVVRRIICSAGLSLLAEERQENLPDEIYHVYSFALR [NTMT1]”, the values for the melting temperature in the data set on HeLa Kyoto [1] (cell cycle stage: G1/S) and with HeLa Kyoto [1] (cell cycle stage: mitosis) were 49.9 °C and 51.2 °C, respectively. Also, the “solubility change mitosis (log2)” value in the data set with HeLa Kyoto [2] was -0.15. Further, the “solubility in G1/S (log2)” value with HeLa Kyoto [3] came to 0.238. The thermal stability score with HeLa Kyoto [4] (setting [5]) stood at 1.31; in the data set with HeLa Kyoto [4] (cell cycle stage: mitosis) it was 1.61.

On to “MTSGATRYRLSCSLRGHELDVRGLVCCAYPPGAFVSVSRDRTTRLWAPDSPNRSFTEMHCMSGHSNFVSCVCIIPSSDIYPHGLIATGGNDHNICIFSLDSPMPLYILKGHKNTVCSLSSGKFGTLLSGSWDTTAKVWLNDKCMMTLQGHTAAVWAVKILPEQGLMLTGSADKTVKLWKAGRCERTFSGHEDCVRGLAILSETEFLSCANDASIRRWQITGECLEVYYGHTNYIYSISVFPNCRDFVTTAEDRSLRIWKHGECAQTIRLPAQSIWCCCVLDNGDIVVGASDGIIRVFTESEDRTASAEEIKAFEKELSHATIDSKTGDLGDINAEQLPGREHLNEPGTREGQTRLIRDGEKVEAYQWSVSEGRWIKIGDVVGSSGANQQTSGKVLYEGKEFDYVFSIDVNEGGPSYKLPYNTSDDPWLTAYNFLQKNDLNPMFLDQVAKFIIDNTKGQMLGLGNPSFSDPFTGGGRYVPGSSGSSNTLPTADPFTGAGRYVPGSASMGTTMAGVDPFTGNSAYRSAASKTMNIYFPKKEAVTFDQANPTQILGKLKELNGTAPEEKKLTEDDLILLEKILSLICNSSSEKPTVQQLQILWKAINCPEDIVFPALDILRLSIKHPSVNENFCNEKEGAQFSSHLINLLNPKGKPANQLLALRTFCNCFVGQAGQKLMMSQRESLMSHAIELKSGSNKNIHIALATLALNYSVCFHKDHNIEGKAQCLSLISTILEVVQDLEATFRLLVALGTLISDDSNAVQLAKSLGVDSQIKKYSSVSEPAKVSECCRFILNLL [PLAA]”, for which the melting temperature amounted to 49.5 °C in the data set on HeLa Kyoto [1] (cell cycle stage: G1/S) and 50 °C in the data set with HeLa Kyoto [1] (cell cycle stage: mitosis). In the data set with HeLa Kyoto [2], the “solubility change mitosis (log2)” value was -0.198. In addition, in the data set on HeLa Kyoto [3], the “solubility in G1/S (log2)” value was -0.0389. Further, the thermal stability score with HeLa Kyoto [4] (setting [5]) worked out at 1.32; with HeLa Kyoto [4] (cell cycle stage: mitosis) it was 1.3.

“MTSHYVIAIFALMSSCLATAGPEPGALCELSPVSASHPVQALMESFTVLSGCASRGTTGLPQEVHVLNLRTAGQGPGQLQREVTLHLNPISSVHIHHKSVVFLLNSPHPLVWHLKTERLATGVSRLFLVSEGSVVQFSSANFSLTAETEERNFPHGNEHLLNWARKEYGAVTSFTELKIARNIYIKVGEDQVFPPKCNIGKNFLSLNYLAEYLQPKAAEGCVMSSQPQNEEVHIIELITPNSNPYSAFQVDITIDIRPSQEDLEVVKNLILILKCKKSVNWVIKSFDVKGSLKIIAPNSIGFGKESERSMTMTKSIRDDIPSTQGNLVKWALDNGYSPITSYTMAPVANRFHLRLENNAEEMGDEEVHTIPPELRILLDPGALPALQNPPIRGGEGQNGGLPFPFPDISRRVWNEEGEDGLPRPKDPVIPSIQLFPGLREPEEVQGSVDIALSVKCDNEKMIVAVEKDSFQASGYSGMDVTLLDPTCKAKMNGTHFVLESPLNGCGTRPRWSALDGVVYYNSIVIQVPALGDSSGWPDGYEDLESGDNGFPGDMDEGDASLFTRPEIVVFNCSLQQVRNPSSFQEQPHGNITFNMELYNTDLFLVPSQGVFSVPENGHVYVEVSVTKAEQELGFAIQTCFISPYSNPDRMSHYTIIENICPKDESVKFYSPKRVHFPIPQADMDKKRFSFVFKPVFNTSLLFLQCELTLCTKMEKHPQKLPKCVPPDEACTSLDASIIWAMMQNKKTFTKPLAVIHHEAESKEKGPSMKEPNPISPPIFHGLDTLTVMGIAFAAFVIGALLTGALWYIYSHTGETAGRQQVPTSPPASENSSAAHSIGSTQSTPCSSSSTA [TGFBR3]”: the melting temperature in the data set on HeLa Kyoto [1] (cell cycle stage: G1/S) is 53.8 °C; in the data set with HeLa Kyoto [1] (cell cycle stage: mitosis) it was 54.4 °C. Moreover, in the data set on HeLa Kyoto [2], the “solubility change mitosis (log2)” value was -0.094. Besides, the “solubility in G1/S (log2)” value in the data set on HeLa Kyoto [3] was -0.155. The thermal stability score in the data set with HeLa Kyoto [4] (setting [5]) was 1.1; with HeLa Kyoto [4] (cell cycle stage: mitosis), 2.26.
